Assay results: patent US20250270343A1 (Alector, published 2025)
Changes are numbered by the printed parent chain.

T1: soluble human GPNMB-Fc polypeptide (human, UniProt Q14956 23-498, limits assumed)
T1 construct: also called huGPNMB-Fc; not shown: Fc domain
T1 sequence (looked up): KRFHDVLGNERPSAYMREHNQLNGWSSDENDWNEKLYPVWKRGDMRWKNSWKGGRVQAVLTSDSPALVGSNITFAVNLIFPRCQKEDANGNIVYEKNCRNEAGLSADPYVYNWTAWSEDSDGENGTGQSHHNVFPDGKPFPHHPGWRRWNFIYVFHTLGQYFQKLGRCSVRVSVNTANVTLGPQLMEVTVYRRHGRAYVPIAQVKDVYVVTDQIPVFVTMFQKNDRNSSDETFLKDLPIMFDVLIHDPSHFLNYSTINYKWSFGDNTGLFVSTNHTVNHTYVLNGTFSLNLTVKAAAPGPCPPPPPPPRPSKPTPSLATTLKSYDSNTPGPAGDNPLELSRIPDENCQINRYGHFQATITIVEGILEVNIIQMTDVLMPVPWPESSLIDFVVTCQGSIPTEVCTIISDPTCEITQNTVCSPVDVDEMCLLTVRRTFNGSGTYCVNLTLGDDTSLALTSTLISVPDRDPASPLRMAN

B1: recombinant Fab2 fragment of anti-GPNMB antibody GPN-38 (other)
VH: QVQLQQPGAELVRPGTSVRLSCKASGYTFTSYWIHWVKQRPGRGLEWIGVIDPSDSYTNYNQQFNVKATLTVDTSSSAAYMQLSSLTSEDSAVYYCARGLITAVNWYFDVWGTGTTVTVSS
VL: DIQMTQSPASLSTSVGEIVTITCRASENIYSYLTWYQQKQGKSPQLLVYNAKTLAEGVPSRFSGSGSGTQFSLKINSLQPEDFGTYYCQHHYGTPLTFGSGTKLEIK
notes: also called GPN-38 Fab2
B2: recombinant Fab2 fragment of anti-GPNMB antibody GPN-35 (other)
VH: EVQLVESGGGSVRPGRSLKLSCAAAGFTFSDYYMTWVRQAPTKGLEWVASINHDGGGTYYRDSVKGRFTISRDNARSSLYLQMDSLRSEDTGTYYCTTRAGWHWGQGVMVTVSS
VL: DIQMTQSPASLSASLGETVSIECLASEDIYNYLTWYQQKPGKSPQVLIYSASGLQDGVPSRFSGSGSGRQYSLKINGLESEDAATYFCLQDSEYPLTFGSGTKLEIK
notes: also called GPN-35 Fab2
B3: recombinant Fab2 fragment of anti-GPNMB antibody GPN-37 (other)
VH: EVQLVESGGGLVQPGRSLKLSCAASGFTFSSKSGMAWVRQAPTKGLEWVASISNGGGDTYYRDSVKGRFTISRDNAKNTQYLQMDSLRPEDTATYYCARHRDYGYDAYFDYWGQGVMVTVSS
VL: DIQMTQSPASLSASLGETVTIECLASEDIYSSLAWYQQKPGKSPQLLIYDASSLQDGVPSRFSGSESGTQYSLEINSLQSEDAATYFCQQHHDYPYTFGAGTKLELK
notes: also called GPN-37 Fab2
B4: recombinant Fab2 fragment of anti-GPNMB antibody GPN-65 (other)
VH: QLQLQQSGTEVVKPGASVKIPCKASGYAFSSYWMNWVKQRPGKGLEWIGQIYPGDGDTNDNGKFEGKATLTVDKSSNTAYIQLSSLTSEDSAVYFCARSPLHLRGSMDYWGQGTSVTVSS
VL: SIVMTQTPKFLLVSAGDRVTITCKASQSVSNDVAWFQQKPGQSPELLIYSASNRYTGVPDRFTGSGYGTDFTFTISTVQAEDLAVYFCQQNYYSPFTFGGGTRLEIK
notes: also called GPN-65 Fab2
B5: recombinant Fab2 fragment of anti-GPNMB antibody GPN-41 (other)
VH: B4 VH
VL: B4 VL with G64A, T77A
notes: also called GPN-41 Fab2
B6: soluble mouse GPNMB-Fc polypeptide (Fc of human IgG1 or mouse IgG2A, not specified for the assay) (Fc fusion, UniProt Q99P91 23-502, looked up)
chain: KRFRDVLGHEQYPDHMREHNQLRGWSSDENEWDEHLYPVWRRGDGRWKDSWEGGRVQAVLTSDSPALVGSNITFVVNLVFPRCQKEDANGNIVYEKNCRNDLGLTSDLHVYNWTAGADDGDWEDGTSRSQHLRFPDRRPFPRPHGWKKWSFVYVFHTLGQYFQKLGRCSARVSINTVNLTAGPQVMEVTVFRRYGRAYIPISKVKDVYVITDQIPVFVTMSQKNDRNLSDEIFLRDLPIVFDVLIHDPSHFLNDSAISYKWNFGDNTGLFVSNNHTLNHTYVLNGTFNLNLTVQTAVPGPCPPPSPSTPPPPSTPPSPPPSPLPTLSTPSPSLMPTGYKSMELSDISNENCRINRYGYFRATITIVEGILEVSIMQIADVPMPTPQPANSLMDFTVTCKGATPMEACTIISDPTCQIAQNRVCSPVAVDGLCLLSVRRAFNGSGTYCVNFTLGDDASLALTSTLISIPGKDPDSPLRAVN
notes: extracellular domain; also called moGPNMB-Fc; mGPNMB; not shown: Fc region of human IgG1 or mouse IgG2A; in the Fab2 assay detected with anti-human IgG1 secondary antibody

Tests used:
[1] = biological target: B6; assay: FACS, Fab2 enhancing moGPNMB-Fc binding to SVEC4-10 cells
Method: (§1) Purified recombinant Fab2 fragments of select anti-GPNMB antibodies of the present disclosure were produced through transient transfection and purified. Briefly, 2 ug/mL soluble mouse or human GPNMB-Fc diluted in binding buffer was pre-complexed with increasing concentrations of anti-GPNMB Fab2 fragments in 96-well plates. Subsequently, 100,000 SVEC4-10 cells were added per well and incubated on ice for 30 minutes. Soluble moGPNMB-Fc or huGPNMB-Fc bound to cell surface was detected with fluorescent anti-human IgG1 secondary antibody and measured on FACSCanto. IC50 and EC50 values based on changes in MFI values were calculated for each antibody.

[2] = biological target: T1, soluble human GPNMB-Fc polypeptide; assay: FACS, Fab2 enhancing huGPNMB-Fc binding to SVEC4-10 cells
Method: as §1

[3] = biological target: T1, soluble human GPNMB-Fc polypeptide; assay: FACS, Fab2 blocking huGPNMB-Fc binding to SVEC4-10 cells
Method: as §1

[4] = biological target: B6; assay: FACS, Fab2 blocking moGPNMB-Fc binding to SVEC4-10 cells
Method: as §1

[5] = biological target: B6; assay: FACS ligand binding assay: 2 ug/mL moGPNMB-Fc pre-complexed with rising Fab2, then SVEC4-10 cells; blocked ligand: unidentified ligand(s) on SVEC4-10 cells; bound GPNMB-Fc detected with anti-human IgG1 secondary
Method: as §1

[6] = biological target: T2, unidentified GPNMB ligand(s) on the surface of NHLF cells; assay: flow cytometry, titration of soluble moGPNMB-Fc on normal human lung fibroblasts; MFI-APC against concentration (ug/mL)
T2 construct: written like m62, for NHLF cells; also called Normal Human Lung Fibroblast Cells
Source text: The extracellular domain of GPNMB protein contains putative protein- or carbohydrate-binding domains capable of recognizing various ligands on the cell surface. […] Soluble mouse GPNMB-Fc polypeptide, consisting of the extracellular domain of mouse GPNMB and an Fc region of human IgG1 or mouse IgG2A (R&D System) (moGPNMB or mGPNMB) was used to confirm the binding activity of GPNMB towards different cell lines. Binding properties of soluble moGPNMB-Fc were examined by flow cytometry. Different cell lines (mouse SVEC4-10 cells, normal human lung fibroblasts (NHLF), mouse astrocytes, and human astrocytes were nonenzymatically harvested, plated at 100,000 cells/well, and incubated with increasing concentrations moGPNMB-Fc or control human IgG1 or control mouse IgG2A, in binding buffer (Hanks' balanced salt solution containing 1.3 mM CaCl₂, 0.8 mM MgSO₄, 3% fetal calf serum, and 10 mM HEPES) for 30 min on ice.
[…] Binding of soluble moGPNMB-Fc to cells was examined by FACSCanto (Becton Dickinson, San Jose, CA). In some experiments, the binding was performed in the presence of known GPNMB binding inhibitors (heparin, dextran sulfate, all purchased from Sigma).

Row | EC50 [1] [nM] | EC50 [2] [nM] | IC50 [3] [nM] | Binder | further results
1 | 5.83 | 2.15 |  | B1 | 
2 |  |  | 5.08 | B2 | IC50 [4]: 4.05 nM
3 |  |  | 9.49 | B3 | 
4 | 0.38 | 0.83 |  | B4 | 
5 |  |  |  | B5 | IC50 (read off the curve) [5]: ~4000 nM
6 |  |  |  | B6 | EC50 (read off the curve) [6]: ~0.1 µg/mL
